Test results published in patent publication US20060141529.

Target: T1, Cortactin isoform 2 (recombinant, purified from baculovirally infected insect cells)
T1 chain: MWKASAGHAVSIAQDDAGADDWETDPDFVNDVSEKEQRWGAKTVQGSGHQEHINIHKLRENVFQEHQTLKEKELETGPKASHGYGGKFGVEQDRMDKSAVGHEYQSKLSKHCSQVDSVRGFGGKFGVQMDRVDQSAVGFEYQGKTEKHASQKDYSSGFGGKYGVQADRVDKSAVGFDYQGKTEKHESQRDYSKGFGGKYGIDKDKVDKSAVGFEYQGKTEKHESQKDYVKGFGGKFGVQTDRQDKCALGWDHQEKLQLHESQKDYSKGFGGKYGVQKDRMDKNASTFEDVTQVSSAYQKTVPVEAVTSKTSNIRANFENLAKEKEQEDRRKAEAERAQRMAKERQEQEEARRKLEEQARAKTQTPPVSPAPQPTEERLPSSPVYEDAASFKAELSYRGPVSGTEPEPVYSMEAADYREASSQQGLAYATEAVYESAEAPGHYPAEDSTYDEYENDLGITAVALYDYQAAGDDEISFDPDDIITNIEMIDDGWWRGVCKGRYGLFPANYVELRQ

B1: ARG, wild type, constructed from mouse cDNA (recombinant) (protein)
chain: MGQQVGRVGEAPGLQQPQPRGIRGSSAARPSGRRRDPAGRTADAGFNVFTQHDHFASCVEDGFEGDKTGGSSPEVLHRPFGCDAESQALNEAIRWSSKENLLGATESDPNLFVALYDFVASGDNTLSITKGEKLRVLGYNQNGEWSEVRSKNGQGWVPSNYITPVNSLEKHSWYHGPVSRSAAEYLLSSLINGSFLVRESESSPGQLSISLRYEGRVYHYRINTTTDSKVYVTAESRFSTLAELVHHHSTVADGLVTTLHYPAPKCNKPTVYGVSPIHDKWEMERTDITMKHKLGGGQYGEVYVGVWKKYSLTVAVKTFKEDTMEVEEFLKEAAVMKEIKHPNLVQLLGVCTLEPPFYIVTEYMPYGNLLDYLRECSREEVTAVVLLYMATQISSAMEYLEKKNFIHRDLAARNCLVGENHVVKVADFGLSRLMTGDTYTAHAGAKFPIKWTAPESLAYNTFSIKSDVWAFGVLLWEIATYGMSPYPGIDLSQVYDLLEKGYRMEQPEGCPPKVYELMRACWKWSPADRPSFAETHQAFETMFHDSSISEEVAEELGRTASSSSVVPYLPRLPLLPSKTRTLRKQGENKENLDGGLDAAESLASSSAPAGFIRSTQASSGSPALPRKQRDKSPSSLLEDAKETCFTRDRKGGFFSSFMKKRNAPTPPKRSSSFREMENQPHKKYELTGNFSPVASLQNADGFSVAPSQQEPNLVPAKCYGGSFAQRNLCADDDSGGGGGSGTAGGGWSGITGFFTPRLIKKTLGLRAGKPTASDDTSKPFPRSNSTSSMSSGLPEQDRMAMTLPRNCQRSKLQLERTVSTSSQPEENVDRANDMLPKKSEEGAAPARERPKAKLLPRGATALPLRAPDPAITESDSPGVGVAGVAAAPKGKERNGGTRLGVAGVPEDGEQLGWSSPAKAVAVLPTTHNHKVPVLISPTLKHTPADVQLIGTDSQGNKFKLLSEHQVTSSGDKDRPRRVKPKCAPPPPPVMRLLQHPSTCSDPEEEPTAPPAGQHTPETQEGGKKAAPGPVPSSGKPGRPVMPPPQVPLPTSSISPAKMANGTAGTKVALRKTKQAAEKISADKISKEALLECADLLSSAITEPVPNSQLVDTGHQLLDYCSGYVDSIPQTRNKFAFREAVSKLELSLQELQVSSTAAGVPGTNPVLNNLLSCVQEISDVVQR
For B1, the “KM (steady-state in vitro kinase assay)” value was “KM of 110 nM and 60 nM for ABL and ARG, respectively” and the “kcat (steady-state in vitro kinase assay)” value was “The kcat for ABL and ARG is 0.05 min-1”.
